Test system: Escherichia coli TOP10
Assay: shrunken log2 fold change of peptide-encoding DNA abundance (4.5 h post-induction vs induction); higher = less antimicrobial activity (less host growth inhibition)
Conditions: time post-induction: 4.5 h; library: site-saturation at positions 5, 18, 19, 20
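Further: peptides expressed intracellularly from a pBAD plasmid library in pooled LB shake-flask culture, induced with 0.3% L-arabinose, DNA abundance read by NGS, three biological replicates, DESeq2 with apeglm shrinkage.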

Row | Sequence | shrunken log2 fold change
1 | RRIRGRPPRLPRPRPRPYTKPRP | -0.216
2 | RRIRQRPPRLPRPRPRPLTKPRP | 0.184
3 | RRIRYRPPRLPRPRPRPNHDPRP | -0.433
4 | RRIRYRPPRLPRPRPRPPLKPRP | -0.192
5 | RRIRWRPPRLPRPRPRPGPKPRP | 0.21
6 | RRIRWRPPRLPRPRPRPYYQPRP | -0.297
7 | RRIRSRPPRLPRPRPRPTKGPRP | -0.0226
8 | RRIRYRPPRLPRPRPRPFLSPRP | -0.0547
9 | RRIRARPPRLPRPRPRPETVPRP | 0.312
10 | RRIRSRPPRLPRPRPRPHPMPRP | -0.236
11 | RRIRQRPPRLPRPRPRPYVEPRP | -0.537
12 | RRIRSRPPRLPRPRPRPWDKPRP | -0.252
13 | RRIRRRPPRLPRPRPRPSDNPRP | -0.134
14 | RRIRWRPPRLPRPRPRPDGSPRP | -0.0311
15 | RRIRLRPPRLPRPRPRPAHKPRP | 0.384
16 | RRIRNRPPRLPRPRPRPNCIPRP | -0.679
17 | RRIRWRPPRLPRPRPRPTAGPRP | 0.965
18 | RRIRCRPPRLPRPRPRPADMPRP | -0.115
19 | RRIRKRPPRLPRPRPRPDRHPRP | -0.091
20 | RRIRMRPPRLPRPRPRPKLIPRP | -0.0987
21 | RRIRSRPPRLPRPRPRPPERPRP | 0.0652
22 | RRIRTRPPRLPRPRPRPTIDPRP | -0.319
23 | RRIRPRPPRLPRPRPRPMRWPRP | 0.707
24 | RRIRLRPPRLPRPRPRPCRDPRP | -0.211
25 | RRIRFRPPRLPRPRPRPSAIPRP | -0.304

Row | Sequence | shrunken log2 fold change
26 | RRIRKRPPRLPRPRPRPKCVPRP | 0.52
27 | RRIRIRPPRLPRPRPRPQPIPRP | -0.00642
28 | RRIRSRPPRLPRPRPRPDHLPRP | -0.0228
29 | RRIRARPPRLPRPRPRPGQLPRP | 0.359
30 | RRIRDRPPRLPRPRPRPFFWPRP | 0.504
31 | RRIRQRPPRLPRPRPRPETEPRP | 0.0982
32 | RRIRWRPPRLPRPRPRPYPCPRP | -0.105
33 | RRIRYRPPRLPRPRPRPPVFPRP | 0.0494
34 | RRIRFRPPRLPRPRPRPAWHPRP | 0.259
35 | RRIRCRPPRLPRPRPRPKQNPRP | 0.136
36 | RRIRDRPPRLPRPRPRPFLMPRP | -0.0685
37 | RRIRPRPPRLPRPRPRPKSSPRP | -0.278
38 | RRIRSRPPRLPRPRPRPGDFPRP | 0.0535
39 | RRIRDRPPRLPRPRPRPRAEPRP | 0.552
40 | RRIRNRPPRLPRPRPRPNCSPRP | 7.72e-05
41 | RRIRYRPPRLPRPRPRPMSYPRP | -0.0389
42 | RRIRCRPPRLPRPRPRPDCTPRP | -0.232
43 | RRIRARPPRLPRPRPRPMFWPRP | 0.19
44 | RRIRDRPPRLPRPRPRPLNDPRP | -0.172
45 | RRIRARPPRLPRPRPRPLNDPRP | 0.0895
46 | RRIRQRPPRLPRPRPRPRCFPRP | -0.0694
47 | RRIRDRPPRLPRPRPRPLQQPRP | 0.104
48 | RRIRARPPRLPRPRPRPSINPRP | -0.308
49 | RRIRARPPRLPRPRPRPNFFPRP | 0.349
50 | RRIRCRPPRLPRPRPRPNWIPRP | -0.419

Row | Sequence | shrunken log2 fold change
51 | RRIRRRPPRLPRPRPRPYQWPRP | -0.244
52 | RRIRLRPPRLPRPRPRPFVGPRP | 4.94e-06
53 | RRIRKRPPRLPRPRPRPMPFPRP | 0.0304
54 | RRIRRRPPRLPRPRPRPFIWPRP | 0.0601
55 | RRIRMRPPRLPRPRPRPRMYPRP | -0.0804
56 | RRIRWRPPRLPRPRPRPTFLPRP | 0.146
57 | RRIRRRPPRLPRPRPRPHLYPRP | 0.176
58 | RRIRGRPPRLPRPRPRPNYVPRP | 0.216
59 | RRIRNRPPRLPRPRPRPREIPRP | 0.0831
60 | RRIRERPPRLPRPRPRPHITPRP | -0.99
61 | RRIRARPPRLPRPRPRPWTGPRP | 0.00192
62 | RRIRPRPPRLPRPRPRPCWDPRP | -0.0457
63 | RRIRFRPPRLPRPRPRPIARPRP | 0.00909
64 | RRIRKRPPRLPRPRPRPVCQPRP | 0.436
65 | RRIRDRPPRLPRPRPRPLEMPRP | 0.0813
66 | RRIRLRPPRLPRPRPRPEYAPRP | -0.000852
67 | RRIRKRPPRLPRPRPRPHNKPRP | -0.0934
68 | RRIRSRPPRLPRPRPRPAQQPRP | 0.409
69 | RRIRYRPPRLPRPRPRPFWYPRP | -0.234
70 | RRIRRRPPRLPRPRPRPWKWPRP | -0.00244
71 | RRIRQRPPRLPRPRPRPSHWPRP | -0.153
72 | RRIRIRPPRLPRPRPRPIAFPRP | -0.0789
73 | RRIRPRPPRLPRPRPRPRTQPRP | 0.223
74 | RRIRCRPPRLPRPRPRPAVVPRP | -0.243
75 | RRIRVRPPRLPRPRPRPGQQPRP | 0.026

Row | Sequence | shrunken log2 fold change
76 | RRIRWRPPRLPRPRPRPVNFPRP | 0.0606
77 | RRIRFRPPRLPRPRPRPMNHPRP | -0.327
78 | RRIRLRPPRLPRPRPRPEKNPRP | 0.0916
79 | RRIRIRPPRLPRPRPRPLVVPRP | -0.25
80 | RRIRVRPPRLPRPRPRPQCRPRP | -0.167
81 | RRIRCRPPRLPRPRPRPMNLPRP | -0.538
82 | RRIRERPPRLPRPRPRPGGNPRP | -0.442
83 | RRIRERPPRLPRPRPRPDANPRP | -0.103
84 | RRIRIRPPRLPRPRPRPVGDPRP | -0.0246
85 | RRIRMRPPRLPRPRPRPSMHPRP | 0.377
86 | RRIRNRPPRLPRPRPRPNSDPRP | -0.073
87 | RRIRPRPPRLPRPRPRPYIEPRP | -0.322
88 | RRIRKRPPRLPRPRPRPLSGPRP | -0.0828
89 | RRIRGRPPRLPRPRPRPKVIPRP | 0.197
90 | RRIRCRPPRLPRPRPRPEDLPRP | 0.117
91 | RRIRNRPPRLPRPRPRPYVKPRP | -0.626
92 | RRIRRRPPRLPRPRPRPRCDPRP | 0.306
93 | RRIRMRPPRLPRPRPRPQYEPRP | -0.148
94 | RRIRNRPPRLPRPRPRPSPKPRP | 0.191
95 | RRIRPRPPRLPRPRPRPHGFPRP | -0.21
96 | RRIRWRPPRLPRPRPRPQDTPRP | -0.0161
97 | RRIRHRPPRLPRPRPRPCHEPRP | -0.0201
98 | RRIRPRPPRLPRPRPRPKENPRP | -0.102
99 | RRIRWRPPRLPRPRPRPQCYPRP | -0.252
100 | RRIRYRPPRLPRPRPRPEFFPRP | -0.0803

Row | Sequence | shrunken log2 fold change
101 | RRIRSRPPRLPRPRPRPWAQPRP | -0.0414
102 | RRIRNRPPRLPRPRPRPFFAPRP | 0.201
103 | RRIRYRPPRLPRPRPRPRELPRP | -0.0942
104 | RRIRYRPPRLPRPRPRPNDEPRP | -0.034
105 | RRIRHRPPRLPRPRPRPPKFPRP | -0.223
106 | RRIRRRPPRLPRPRPRPDQHPRP | 0.552
107 | RRIRWRPPRLPRPRPRPILSPRP | -0.422
108 | RRIRWRPPRLPRPRPRPLKVPRP | -0.496
109 | RRIRQRPPRLPRPRPRPPSPPRP | 0.426
110 | RRIRARPPRLPRPRPRPVHSPRP | 0.0799
111 | RRIRDRPPRLPRPRPRPPFAPRP | 0.427
112 | RRIRCRPPRLPRPRPRPCTLPRP | -0.107
113 | RRIRWRPPRLPRPRPRPEEEPRP | 0.00738
114 | RRIRKRPPRLPRPRPRPIQYPRP | -0.193
115 | RRIRIRPPRLPRPRPRPCWIPRP | -0.222
116 | RRIRFRPPRLPRPRPRPQSFPRP | 0.00824
117 | RRIRSRPPRLPRPRPRPMMFPRP | 0.0732
118 | RRIRWRPPRLPRPRPRPWLRPRP | 0.0741
119 | RRIRRRPPRLPRPRPRPKFNPRP | 0.00967
120 | RRIRFRPPRLPRPRPRPEKVPRP | -0.0394
121 | RRIRARPPRLPRPRPRPNLQPRP | 0.177
122 | RRIRVRPPRLPRPRPRPTEFPRP | -0.143
123 | RRIRWRPPRLPRPRPRPKFDPRP | -0.0572
124 | RRIRDRPPRLPRPRPRPWCEPRP | -0.093
125 | RRIRTRPPRLPRPRPRPSHKPRP | -0.421

Row | Sequence | shrunken log2 fold change
126 | RRIRSRPPRLPRPRPRPMYEPRP | 0.0571
127 | RRIRYRPPRLPRPRPRPPKTPRP | -0.38
128 | RRIRIRPPRLPRPRPRPTAEPRP | -0.0333
129 | RRIRDRPPRLPRPRPRPGVQPRP | -0.0372
130 | RRIRYRPPRLPRPRPRPDCGPRP | -0.398
131 | RRIRFRPPRLPRPRPRPHTMPRP | -0.459
132 | RRIRHRPPRLPRPRPRPEGQPRP | -0.0936
133 | RRIRYRPPRLPRPRPRPDYVPRP | -0.447
134 | RRIRFRPPRLPRPRPRPRYRPRP | -0.4
135 | RRIRDRPPRLPRPRPRPGYYPRP | 0.117
136 | RRIRRRPPRLPRPRPRPAHCPRP | 0.804
137 | RRIRTRPPRLPRPRPRPQLHPRP | 0.0211
138 | RRIRMRPPRLPRPRPRPCFIPRP | -0.496
139 | RRIRWRPPRLPRPRPRPTGGPRP | 0.511
140 | RRIRVRPPRLPRPRPRPQEYPRP | 0.0203
141 | RRIRCRPPRLPRPRPRPHVFPRP | 0.161
142 | RRIRLRPPRLPRPRPRPCEDPRP | 0.00976
143 | RRIRWRPPRLPRPRPRPFLFPRP | 0.095
144 | RRIRARPPRLPRPRPRPWSNPRP | 0.0711
145 | RRIRHRPPRLPRPRPRPTREPRP | 0.0175
146 | RRIRMRPPRLPRPRPRPYDCPRP | -0.113
147 | RRIRFRPPRLPRPRPRPGNVPRP | 0.0145
148 | RRIRARPPRLPRPRPRPKKQPRP | 0.0491
149 | RRIRSRPPRLPRPRPRPAGHPRP | -0.794
150 | RRIRQRPPRLPRPRPRPHMYPRP | -0.706
